Source: patent publication US20240398942A1 (CHIA TAI TIANQING PHARMACEUTICAL GROUP, published 2024)
Residue numbers refer to the chain shown, from its start. Each block holds one binder with its values, some of them ahead of it.

Assays:
[1] = target: T1, recombinant human CD40-his (Acro biosystems, Cat. No. CD0-H5228) (human, UniProt P25942 21-193); test: BLI (Octet RED 96), antibody captured from cell supernatant on AHC sensor, human CD40-his as analyte, 1:1 fit
T1 construct: Bought protein; also called human CD40-his protein; not shown: His tag
T1 sequence (P25942 21-193 limits assumed): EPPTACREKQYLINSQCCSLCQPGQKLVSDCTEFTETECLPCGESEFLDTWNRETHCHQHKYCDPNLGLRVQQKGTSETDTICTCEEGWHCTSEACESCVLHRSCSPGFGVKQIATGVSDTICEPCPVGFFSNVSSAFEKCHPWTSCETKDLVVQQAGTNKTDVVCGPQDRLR
Method: (§1) After six days of culture in a shake flask, the cell supernatant containing the humanized antibodies huC1H1-V1 to huC1H1-V4 was harvested and the binding affinity of the antibodies to human CD40 was determined on an Octet system (Fortebio, Octet RED 96) according to the following procedures. Briefly, an anti-human IgG Fc capture (AHC) biosensor (from ForteBio) was pre-soaked in a 10 mM glycine solution (pH 1.5) for 3 s, and then soaked in a running buffer (PBST containing 0.5% w/v of BSA) for 3 s. The pre-soaking and soaking procedures were repeated 3 times. Then, the sensor was soaked in the cell supernatant containing the humanized anti-CD40 antibody, chimeric antibody C1H1 dissolved in HBS-EP⁺ buffer at a concentration of 5 μg/mL, or the benchmark dissolved in HBS-EP⁺ buffer at a concentration of 5 μg/mL for 120 s, and then soaked in the running buffer for 5 min. The new baseline was run in the running buffer for 180 s. The sensor was then soaked for 120 s in human CD40-his protein (Acro biosystems, Cat. No. CD0-H5228) 2-fold serially diluted from 40 nM in the running buffer and for 10 min in the running buffer […]. Finally, the sensor was pre-soaked in a 10 mM glycine solution (pH 1.5) for 3 s, and then soaked in the running buffer for 3 s. The pre-soaking and soaking procedures were repeated 3 times. The association and dissociation curves were fitted to a 1:1 Langmuir binding model using ForteBio Data Analysis 8.1.

[2] = target: T1, recombinant human CD40-his (Acro …); test: SPR (Biacore T200), antibody captured on anti-human IgG chip, CD40-his as analyte, 1:1 fit
Source text: Briefly, a goat anti-human IgG (GE Healthcare, Cat. No. BR100839, human antibody capture kit) was covalently linked to a CM5 chip (GE Healthcare, Cat. No. BR100530, carboxymethylated dextran-coated chip) via the primary amine group using a standard amine coupling kit supplied by Biacore (GE Healthcare, Pittsburgh, PA, USA). Unreacted portions on the biosensor surface were blocked with ethanolamine. Then, the anti-CD40 antibody of the present application and two benchmark antibodies (BM1 (dacetuzumab, Genentech Inc., also referred to CD40-BM1, prepared in-house; the heavy and light chain amino acid sequences are set forth in SEQ ID NOs: 40 and 41, respectively) and BM2 (selicrelumab, Abgenix Inc., also referred to CD40-BM2, prepared in-house; the heavy and light chain amino acid sequences are set forth in SEQ ID NOS: 42 and 43, respectively)) at a concentration of 66.67 nM were directed through the chip at a flow rate of 10 μL/min. Then, serially diluted recombinant human CD40-his (Acro biosystems, Cat. No. CD0-H5228, serially 2-fold diluted from 80 nM in HBS-EP⁺ buffer (supplied by Biacore)) or cynomolgus monkey CD40-his protein (Acro biosystems, Cat. No. CD0-C52H6, serially 2-fold diluted from 80 nM in HBS-EP⁺ buffer (supplied by Biacore)) was directed through the chip at a flow rate of 30 μL/min. The antigen-antibody binding kinetics was tracked for 2 min and the dissociation kinetics was tracked for 10 min. The association and dissociation curves were fitted to a 1:1 Langmuir binding model using BIAcore evaluation software. KD, Kₐ, and Kd values were determined.

[3] = target: T2, human CD40-Fc protein (human, biotinylated (sites not given) in the capture ELISA and the benchmark blocking ELISA; not biotinylated in the ligand blocking ELISA); test: capture ELISA: antibody captured on coated goat anti-human IgG F(ab')2, biotinylated human CD40-Fc 1.15 nM, streptavidin-HRP, OD(450-630)
T2 construct: also called biotinylated human CD40-Fc
T2 sequence (chain, as listed by the source limits assumed): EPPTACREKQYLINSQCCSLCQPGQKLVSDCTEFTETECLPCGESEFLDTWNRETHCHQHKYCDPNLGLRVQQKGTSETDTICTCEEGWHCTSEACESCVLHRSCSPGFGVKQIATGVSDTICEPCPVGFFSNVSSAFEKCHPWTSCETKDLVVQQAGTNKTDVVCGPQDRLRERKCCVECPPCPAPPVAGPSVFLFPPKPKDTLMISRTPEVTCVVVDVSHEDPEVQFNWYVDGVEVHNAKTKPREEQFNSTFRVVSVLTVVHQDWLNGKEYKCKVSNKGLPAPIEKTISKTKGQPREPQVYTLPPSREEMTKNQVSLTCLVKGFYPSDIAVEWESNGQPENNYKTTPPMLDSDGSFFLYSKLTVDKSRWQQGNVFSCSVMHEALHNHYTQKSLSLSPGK
Method: The plate was washed once with a washing buffer (PBS+0.05% v/v of Tween-20, PBST) and then blocked with 200 μL/well blocking buffer (PBST containing 5% w/v of skim milk) for 2 h at 37° C. The plate was washed 4 times, and the anti-CD40 antibody of the present application, BM1, BM2, and a negative control hIgG (human immunoglobulin for intravenous injection (pH 4), Hualan Biological Engineering Inc.) serially 5-fold diluted from 66.7 nM in a PBST containing 2.5% w/v of skim milk was added at 100 μL per well. The plate was incubated for 40 min at 37° C. and washed 4 times. A biotinylated human CD40-Fc protein (amino acid residues 21-193 of SEQ ID NO: 30 linked to the N terminus of amino acid residues 99-330 of SEQ ID NO: 28, dissolved in PBST containing 2.5% w/v of skim milk at a concentration of 1.15 nM) was added at 100 μL/well to a 96-well plate coated with the anti-CD40 antibody. The plate was incubated at 37° C. for 40 min and washed 4 times. An HRP-labeled streptavidin (diluted at 1:10000 in PBST, Jackson Immuno Research, Cat. No. 016-030-084) was added at 100 μL/well, and the plate was incubated at 37° C. for another 40 min. After the last wash, 100 μL/well of ELISA substrate TMB (Innoreagents, Cat. No. TMB-S-002) was added and the plate was incubated at room temperature. After 3-10 min, the reaction was stopped by adding 1 M H₂SO₄ at 50 µL/well, and the absorbance of each well was read on a microplate reader using the dual wavelength mode (TMB detection wavelength: 450 nm, reference wavelength: 630 nm). Curves of OD(450-630) values vs. antibody concentration were plotted. Data were analyzed using Graphpad Prism software, and EC₅₀ values were obtained.

[4] = target: T1, recombinant human CD40-his (Acro …); test: BLI (Octet RED 96), antibody captured on AHC sensor, human CD40-his as analyte, 1:1 fit
Method: as §1

Kd [1]: 0.596 nM
koff [1]: 0.000981 s⁻¹
kon [1]: 1.65e+06 M⁻¹ s⁻¹
B2: humanized antibody huC1H1-V2 (antibody, human IgG2, kappa, V domains shown)
VH: EVQLVESGGGLVKPGGSLRLSCAASGFTFSNYGISWVRQAPGKGLEWVSSISSGGDNTYYPDNVKGRFTISRDNAKNSLYLQMNSLRAEDTAVYYCARAGEKAMDYWGQGTLVTVSS
VL: EIVLTQSPATLSLSPGERATLSCRASQTINNNLHWYQQKPGQAPRLLIKYASQSISGIPARFSGSGSGTDFTLTISSLEPEDFAVYFCQQFSSWPLTFGGGTKVEIKR
notes: Human IgG2 / kappa

Kd [4]: 0.633 nM
koff [4]: 0.000929 s⁻¹
kon [4]: 1.47e+06 M⁻¹ s⁻¹
Kd [2]: 0.861 nM
koff [2]: 0.00157 s⁻¹
kon [2]: 1.82e+06 M⁻¹ s⁻¹
B4: chimeric antibody C1H1 (antibody, human IgG1, kappa, V domains shown)
VH: EVKLVESGGGLVKPGASLKLSCAASGFTFSNYGISWVRQTSDKRLEWVASISSGGDNTYYPDNVKGRFTISRENAKNTLYLQMSSLKSEDTALYYCARAGEKAMDYWGQGTSVTVSS
VL: DIVLTQSPVTLSVTPGDSVSLSCRASQTINNNLHWYQQKSHESPRLLIKYASQSISGIPSRFSGSGSGTDFTLSINSVETEDFGIYFCQQFSSWPLTFGAGTKLELKR
notes: also called Chimeric C1H1

Further lines, the binder ahead of its results:

B1: humanized antibody huC1H1-V1 (antibody, human IgG2, kappa, V domains shown)
VH: B2 VH with S49A
VL: B2 VL
notes: Human IgG2 / kappa
Kd [1]: 0.904 nM
koff [1]: 0.00128 s⁻¹
kon [1]: 1.41e+06 M⁻¹ s⁻¹

B3: BM1 (dacetuzumab) (antibody, human IgG1, kappa, V domains shown)
VH: EVQLVESGGGLVQPGGSLRLSCAASGYSFTGYYIHWVRQAPGKGLEWVARVIPNAGGTSYNQKFKGRFTLSVDNSKNTAYLQMNSLRAEDTAVYYCAREGIYWWGQGTLVTVSS
VL: DIQMTQSPSSLSASVGDRVTITCRSSQSLVHSNGNTFLHWYQQKPGKAPKLLIYTVSNRFSGVPSRFSGSGSGTDFTLTISSLQPEDFATYFCSQTTHVPWTFGQGTKVEIKR
notes: Benchmark antibody, prepared in-house; also called CD40-BM1; benchmark
Kd [2]: 8.87 nM
koff [2]: 0.00656 s⁻¹
kon [2]: 739000 M⁻¹ s⁻¹
EC50 [3]: 0.463 nM

B5: BM2 (selicrelumab) (antibody, human IgG2, kappa, V domains shown)
VH: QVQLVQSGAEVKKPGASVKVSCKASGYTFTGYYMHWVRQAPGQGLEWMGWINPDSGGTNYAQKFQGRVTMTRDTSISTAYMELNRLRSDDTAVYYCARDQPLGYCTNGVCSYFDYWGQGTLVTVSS
VL: DIQMTQSPSSVSASVGDRVTITCRASQGIYSWLAWYQQKPGKAPNLLIYTASTLQSGVPSRFSGSGSGTDFTLTISSLQPEDFATYYCQQANIFPLTFGGGTKVEIKR
notes: Benchmark antibody, prepared in-house; also called CD40-BM2; benchmark
Kd [4]: 1.12 nM
koff [4]: 0.000979 s⁻¹
kon [4]: 874000 M⁻¹ s⁻¹
EC50 [3]: 0.909 nM
